# Columns and labels:
# [1] = molecular target: Avitag-RSL-His8 (RSL with biotin via the Avitag on the N-terminus and His8 on the C-terminus) (Ralstonia solanum); assay: SEC
# [2] = molecular target: His8-RSL-Avitag (RSL with poly-histidine on the N-terminus and biotin via the Avitag on the C-terminus) (Ralstonia solanum); assay: SEC
Substance,stoichiometry N [1],stoichiometry N [2]
Avitag-RSL-His8 (RSL with biotin via the Avitag on the N-terminus and His8 on the C-terminus) (natural protein),2,
His8-RSL-Avitag (RSL with poly-histidine on the N-terminus and biotin via the Avitag on the C-terminus) (natural protein),,3

# From publication PMC4511852
